# B1: Elaphe quadrivirgata PLIβ (natural protein)
# chain: VLYCPPDPAPENITEFVCNSPSLHEFPTGFPVRTKLISVEFTQVSSLGVEALQGLPNLQELHLSNNRLKTLLSGLFRNLPELHTLDLSTNLLEDLPPEIFTSTTSLTLLSISENRLAKLRLSWFETLKELRILSLDNNQLKEVPISCFDKLEKLTFLDLSSNRLHRLSPDMFSGLDNLERLSLENNPIRCIAPKSFHGRPKLSIISLKNCSLTNIITGVFQPLNHLVLLDLSDNELTMLDPPVAIPSANLSLDLTGNPWACNCRMDNLLTWVKEHKIDLYSKEEIVCAFPKSFKGEEATSLHRSQICPC
# B2: Gloydius brevicauda leucine-rich α2-glycoprotein (PLIβ) (natural protein, UniProt O93233 24-331, looked up)
# chain: VLYCPPTPAPENVTEFVCNSPSLHEFPTGFPARAKMISVEFTQVSSLGVEALQGLPNLQELHLSNNRLKTLPSGLFRNLPQLHTLDLSTNHLEDLPPEIFTNASSLILLPLSENQLAELHPSWFQTLGELRILGLDHNQVKEIPISCFDKLKKLTSLDLSFNLLRRLAPEMFSGLDNLEKLILESNPIQCIVGRTFHWHPKLTVLSLKNSSLTNIMGFFQPLEQLELLDLSDNELTTMEPPVYKTSANLSLDLSGNPWACDCRLDNLLTWVNEHNIHLYSKEEIVCASPKHFKGECATSLHKSQICPC
# notes: PLIβ (snake LRG) of Gloydius brevicauda (Agkistrodon blomhoffii siniticus), from serum; also called G. brevicauda LRG; G. brevicauda PLIβ
# How the values were obtained:
# [1] = target: Protobothrops flavoviridis leucine-rich α2-glycoprotein (LRG) (Protobothrops flavoviridis); assay: SDS-PAGE under reducing and non-reducing conditions
# [2] = target: Protobothrops flavoviridis leucine-rich α2-glycoprotein (LRG) (Protobothrops flavoviridis); assay: SPR; BIAcore X; P. flavoviridis LRG amine-coupled to a CM5 chip; Cyt c or PLA2 as analyte; 25 °C; 50 mM HEPES, 0.05% Tween 20, pH 7.5, NaCl to ionic strength 0.2; 10 μL/min; 1:1 Langmuir model with drifting baseline, global fit; apparent Kd
# [3] = target: Naja kaouthia leucine-rich α2-glycoprotein (LRG) (Naja kaouthia); assay: SDS-PAGE under reducing and non-reducing conditions
# [4] = target: Gloydius brevicauda basic phospholipase A2 (Gloydius brevicauda); assay: inhibition of enzyme activity; PLA2 activity measured fluorometrically with 10-Pyrene-PC as substrate at various concentrations of LRG; apparent inhibition constant (Ki app) by non-linear least-squares analysis of relative PLA2 activity
# Chain of Gloydius brevicauda basic phospholipase A2 (Gloydius brevicauda) (O42187 17-138 limits assumed): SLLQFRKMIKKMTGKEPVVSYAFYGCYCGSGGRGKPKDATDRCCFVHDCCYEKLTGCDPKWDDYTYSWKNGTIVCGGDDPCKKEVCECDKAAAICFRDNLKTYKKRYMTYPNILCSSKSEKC
# [5] = target: Laticauda semifasciata leucine-rich α2-glycoprotein (LRG) (Laticauda semifasciata); assay: SDS-PAGE under reducing and non-reducing conditions
# [6] = target: the molecule itself; assay: as above
# [7] = target: T1, Protobothrops flavoviridis basic phospholipase A2 PL-X (Protobothrops flavoviridis, UniProt P06860 1-122); assay: inhibition of enzyme activity; PLA2 activity measured fluorometrically with 10-Pyrene-PC as substrate at various concentrations of LRG; apparent inhibition constant (Ki app) by non-linear least-squares analysis of relative PLA2 activity; details: both partners purified
# T1 construct: Group II basic phospholipase A2 PL-X from the venom of Protobothrops flavoviridis; also called P. flavoviridis PL-X
# T1 sequence: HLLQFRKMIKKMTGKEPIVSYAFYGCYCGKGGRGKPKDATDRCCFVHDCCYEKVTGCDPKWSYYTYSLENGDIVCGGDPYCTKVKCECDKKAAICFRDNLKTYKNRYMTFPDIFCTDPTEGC
molecule,measurement,setting,value
Protobothrops flavoviridis leucine-rich α2-glycoprotein (LRG) (natural protein),stoichiometry N,[1],2
Laticauda semifasciata cytochrome c (natural protein),Kd,[2],0.0149 nM
Naja kaouthia leucine-rich α2-glycoprotein (LRG) (natural protein),stoichiometry N,[3],2
same,Ki,[4],350 nM
Laticauda semifasciata leucine-rich α2-glycoprotein (LRG) (natural protein),stoichiometry N,[5],2
same,Ki,[4],1030 nM
Elaphe climacophora leucine-rich α2-glycoprotein (PLIβ) (from UniProt C0STK7 24-332) (natural protein),Ki,[4],11.1 nM
B1,stoichiometry N,[6],2
B2,stoichiometry N,[6],2
same,Ki,[7],26.1 nM

# From paper PMC10975490 (Toxins, 2024)
